# Assay results: patent US20110118131A1 (published 2011)
# Positions count from the first letter of the chain named. In names and notes the source's numbering stands.
# B1: XPA23 Fab, heavy chain Y107W (Fab, V domains shown)
# VH: EVQLLESGGGLVQPGGSLRLSCAASGFTFSKYFMFWVRQAPGKGLEWVSVISPSGGMTRYADSVKGRFTISRDNSKNTLYLQMNSLRAEDTAVYYCARVGYGGNSDWWGQGTLVTVSS
# VL: DIQMTQSPSSVSASVGDRLTIICRASQDINRWLAWYQQTPGNAPKLLIHSATSLQSGVPSRFSGSGSGTDFTLTINSLQPEDFATYYCQQADSFPLTFGGGTKVEIK
# B2: XPA23 Fab, heavy chain Y107R (Fab, V domains shown)
# VH: B1 VH with W107R
# VL: B1 VL
# B3: XPA23 Fab, heavy chain Y107S (Fab, V domains shown)
# VH: B1 VH with W107S
# VL: B1 VL
# B4: XPA23 light chain A51D (Fab, V domains shown)
# VH: B1 VH with W107Y
# VL: B1 VL with A51D
# B5: XPA23 light chain A91E (Fab, V domains shown)
# VH: B1 VH with W107Y
# VL: B1 VL with A91E
# B6: XPA23 light chain D28N (Fab, V domains shown)
# VH: B1 VH with W107Y
# VL: B1 VL with D28N
# B7: XPA23 light chain D28W (Fab, V domains shown)
# VH: B1 VH with W107Y
# VL: B1 VL with D28W
# B8: XPA23 light chain A51H (Fab, V domains shown)
# VH: B1 VH with W107Y
# VL: B1 VL with A51H
# B9: XPA23 light chain D28I (Fab, V domains shown)
# VH: B1 VH with W107Y
# VL: B1 VL with D28I
# B10: XPA23 light chain A51W (Fab, V domains shown)
# VH: B1 VH with W107Y
# VL: B1 VL with A51W
# B11: XPA23 light chain D28L (Fab, V domains shown)
# VH: B1 VH with W107Y
# VL: B1 VL with D28L
# B12: XPA23 light chain A91F (Fab, V domains shown)
# VH: B1 VH with W107Y
# VL: B1 VL with A91F
# B13: XPA23 light chain A51Y (Fab, V domains shown)
# VH: B1 VH with W107Y
# VL: B1 VL with A51Y
# B14: XPA23 light chain A51Q (Fab, V domains shown)
# VH: B1 VH with W107Y
# VL: B1 VL with A51Q
# B15: XPA23 light chain D28Y (Fab, V domains shown)
# VH: B1 VH with W107Y
# VL: B1 VL with D28Y
# B16: XPA23 light chain A51N (Fab, V domains shown)
# VH: B1 VH with W107Y
# VL: B1 VL with A51N
# B17: XPA23 light chain A91H (Fab, V domains shown)
# VH: B1 VH with W107Y
# VL: B1 VL with A91H
# B18: XPA23 light chain A51E (Fab, V domains shown)
# VH: B1 VH with W107Y
# VL: B1 VL with A51E
# B19: XPA23 light chain D28G (Fab, V domains shown)
# VH: B1 VH with W107Y
# VL: B1 VL with D28G
# B20: XPA23 light chain D28P (Fab, V domains shown)
# VH: B1 VH with W107Y
# VL: B1 VL with D28P
# B21: XPA23 light chain D28S (Fab, V domains shown)
# VH: B1 VH with W107Y
# VL: B1 VL with D28S
# B22: XPA23 light chain A91S (Fab, V domains shown)
# VH: B1 VH with W107Y
# VL: B1 VL with A91S
# B23: XPA23 light chain D28R (Fab, V domains shown)
# VH: B1 VH with W107Y
# VL: B1 VL with D28R
# B24: XPA23 light chain A91R (Fab, V domains shown)
# VH: B1 VH with W107Y
# VL: B1 VL with A91R
# B25: XPA23 light chain D28H (Fab, V domains shown)
# VH: B1 VH with W107Y
# VL: B1 VL with D28H
# B26: XPA23 light chain A51G (Fab, V domains shown)
# VH: B1 VH with W107Y
# VL: B1 VL with A51G
# B27: XPA23 light chain A91N (Fab, V domains shown)
# VH: B1 VH with W107Y
# VL: B1 VL with A91N
# B28: XPA23 light chain D28E (Fab, V domains shown)
# VH: B1 VH with W107Y
# VL: B1 VL with D28E
# B29: XPA23 light chain A91Y (Fab, V domains shown)
# VH: B1 VH with W107Y
# VL: B1 VL with A91Y
# B30: XPA23 light chain A51L (Fab, V domains shown)
# VH: B1 VH with W107Y
# VL: B1 VL with A51L
# B31: XPA23 light chain A51R (Fab, V domains shown)
# VH: B1 VH with W107Y
# VL: B1 VL with A51R
# B32: XPA23 light chain D28F (Fab, V domains shown)
# VH: B1 VH with W107Y
# VL: B1 VL with D28F
# B33: XPA23 light chain A51I (Fab, V domains shown)
# VH: B1 VH with W107Y
# VL: B1 VL with A51I
# B34: XPA23 light chain D28T (Fab, V domains shown)
# VH: B1 VH with W107Y
# VL: B1 VL with D28T
# B35: XPA23 light chain A91D (Fab, V domains shown)
# VH: B1 VH with W107Y
# VL: B1 VL with A91D
# B36: XPA23 light chain A91W (Fab, V domains shown)
# VH: B1 VH with W107Y
# VL: B1 VL with A91W
# B37: XPA23 light chain D28V (Fab, V domains shown)
# VH: B1 VH with W107Y
# VL: B1 VL with D28V
# B38: XPA23 light chain D28K (Fab, V domains shown)
# VH: B1 VH with W107Y
# VL: B1 VL with D28K
# B39: XPA23 light chain A51S (Fab, V domains shown)
# VH: B1 VH with W107Y
# VL: B1 VL with A51S
# B40: XPA23 light chain A51P (Fab, V domains shown)
# VH: B1 VH with W107Y
# VL: B1 VL with A51P
# B41: XPA23 light chain A91Q (Fab, V domains shown)
# VH: B1 VH with W107Y
# VL: B1 VL with A91Q
# B42: XPA23 light chain A51T (Fab, V domains shown)
# VH: B1 VH with W107Y
# VL: B1 VL with A51T
# B43: XPA23 light chain A51F (Fab, V domains shown)
# VH: B1 VH with W107Y
# VL: B1 VL with A51F
# B44: XPA23 light chain A51V (Fab, V domains shown)
# VH: B1 VH with W107Y
# VL: B1 VL with A51V
# B45: XPA23 light chain D28A (Fab, V domains shown)
# VH: B1 VH with W107Y
# VL: B1 VL with D28A
# Biological target: T1, IL-1beta (UniProt P01584 117-269)
# T1 construct: also called IL-1β
# Assay: Biacore
row,fold difference in affinity vs parental [fold],Binder
1,0.89,B1
2,0.85,B2
3,0.89,B3

# Biological target: T2, IL-1β (UniProt P01584 117-269)
# T2 construct: Antigen immobilised on the Biacore chip
# Assay: Biacore, periplasmic extract
fold difference in affinity vs original [fold],binding result,Binder
0.13,,B4
0.1,,B5
1,,B6
3.81,,B7
0.61,,B8
,no binding,B9
0.24,,B10
9.64,,B11
,no binding,B12
0.45,,B13
0.24,,B14
1.45,,B15
0.3,,B16
1.12,,B17
0.29,,B18
1.21,,B19
1.17,,B20
5.25,,B21
0.9,,B22
0.94,,B23
,no binding,B24

fold difference in affinity vs original [fold],binding result,Binder
1.23,,B25
3.84,,B26
0.1,,B27
0.74,,B28
,no binding,B29
0.16,,B30
0.18,,B31
1.43,,B32
,no binding,B33
1.19,,B34
1.08,,B35
,no binding,B36
0.85,,B37
0.82,,B38
0.95,,B39
0.13,,B40
,no binding,B41
0.76,,B42
,no binding,B43
0.31,,B44
0.88,,B45
